From patent US20200222478A1

Each binder was assayed against HLA-A*03:01 (human) (assay: UV peptide exchange + HLA class I ELISA). Settings: remark: other sources report otherwise.

Row | Binder | exchange rate vs Pos peptide [%]
1 | QLIAMDSAI (here or on the partner: biotinylated heavy chain) [P22 9-mer peptide (SLC45A3-ELK4 fusion)] | 4.8
2 | IVWWCPMSR (here or on the partner: biotinylated heavy chain) [P98 9-mer peptide (TP53 (R213D) frameshift)] | 51.1
3 | RAKCKFSIL (here or on the partner: biotinylated heavy chain) [P56 9-mer peptide (SPOP(F102C))] | 6.8
4 | CPMSRLRLA (here or on the partner: biotinylated heavy chain) [P46 9-mer peptide (TP53 (R213D) frameshift)] | 10.3
5 | LMAQRLLLR (here or on the partner: biotinylated heavy chain) [P97 9-mer peptide (FOXRED2-TXN2 fusion)] | 39
6 | YQFTFDLLI (here or on the partner: biotinylated heavy chain) [P48 9-mer peptide (AR.p.H875Y)] | 4.4
7 | YCMAAPMGL (here or on the partner: biotinylated heavy chain) [P76 9-mer peptide (AR-V3 splice variant)] | 6

The binders below were run against HLA-A*02:01 (human) (assay: UV peptide exchange + HLA class I ELISA). Settings: remark: other sources report otherwise.

Row | Binder | exchange rate vs Pos peptide [%]
8 | QLIAMDSAI (here or on the partner: biotinylated heavy chain) [P22 9-mer peptide (SLC45A3-ELK4 fusion)] | 46.9
9 | IVWWCPMSR (here or on the partner: biotinylated heavy chain) [P98 9-mer peptide (TP53 (R213D) frameshift)] | 7.9
10 | RAKCKFSIL (here or on the partner: biotinylated heavy chain) [P56 9-mer peptide (SPOP(F102C))] | 8.4
11 | CPMSRLRLA (here or on the partner: biotinylated heavy chain) [P46 9-mer peptide (TP53 (R213D) frameshift)] | 14.4
12 | LMAQRLLLR (here or on the partner: biotinylated heavy chain) [P97 9-mer peptide (FOXRED2-TXN2 fusion)] | 4.6
13 | YQFTFDLLI (here or on the partner: biotinylated heavy chain) [P48 9-mer peptide (AR.p.H875Y)] | 99.3
14 | CYLGRQKRF (here or on the partner: biotinylated heavy chain) [P61 9-mer peptide (FOXA1.p.R261G)] | 5.8
15 | YCMAAPMGL (here or on the partner: biotinylated heavy chain) [P76 9-mer peptide (AR-V3 splice variant)] | 85.9

What follows are binders tested against HLA-B*08:01 (human) (assay: UV peptide exchange + HLA class I ELISA). Settings: remark: other sources report otherwise.

Row | Binder | exchange rate vs Pos peptide [%]
16 | QLIAMDSAI (here or on the partner: biotinylated heavy chain) [P22 9-mer peptide (SLC45A3-ELK4 fusion)] | 3.9
17 | IVWWCPMSR (here or on the partner: biotinylated heavy chain) [P98 9-mer peptide (TP53 (R213D) frameshift)] | 2.4
18 | RAKCKFSIL (here or on the partner: biotinylated heavy chain) [P56 9-mer peptide (SPOP(F102C))] | 38
19 | CPMSRLRLA (here or on the partner: biotinylated heavy chain) [P46 9-mer peptide (TP53 (R213D) frameshift)] | 14.5
20 | LMAQRLLLR (here or on the partner: biotinylated heavy chain) [P97 9-mer peptide (FOXRED2-TXN2 fusion)] | 2.7
21 | CYLGRQKRF (here or on the partner: biotinylated heavy chain) [P61 9-mer peptide (FOXA1.p.R261G)] | 3.6

Each binder was assayed against HLA-B*07:02 (human) (assay: UV peptide exchange + HLA class I ELISA). Settings: remark: other sources report otherwise.

Row | Binder | exchange rate vs Pos peptide [%]
22 | QLIAMDSAI (here or on the partner: biotinylated heavy chain) [P22 9-mer peptide (SLC45A3-ELK4 fusion)] | 8.3
23 | IVWWCPMSR (here or on the partner: biotinylated heavy chain) [P98 9-mer peptide (TP53 (R213D) frameshift)] | 6.7
24 | RAKCKFSIL (here or on the partner: biotinylated heavy chain) [P56 9-mer peptide (SPOP(F102C))] | 82.5
25 | CPMSRLRLA (here or on the partner: biotinylated heavy chain) [P46 9-mer peptide (TP53 (R213D) frameshift)] | 64.8
26 | LMAQRLLLR (here or on the partner: biotinylated heavy chain) [P97 9-mer peptide (FOXRED2-TXN2 fusion)] | 7
27 | YQFTFDLLI (here or on the partner: biotinylated heavy chain) [P48 9-mer peptide (AR.p.H875Y)] | 12.8
28 | YCMAAPMGL (here or on the partner: biotinylated heavy chain) [P76 9-mer peptide (AR-V3 splice variant)] | 91.5

These binders were tested against HLA-A*01:01 (human) (assay: UV peptide exchange + HLA class I ELISA). Settings: remark: other sources report otherwise.

Row | Binder | exchange rate vs Pos peptide [%]
29 | QLIAMDSAI (here or on the partner: biotinylated heavy chain) [P22 9-mer peptide (SLC45A3-ELK4 fusion)] | 4.4
30 | IVWWCPMSR (here or on the partner: biotinylated heavy chain) [P98 9-mer peptide (TP53 (R213D) frameshift)] | 2.5
31 | RAKCKFSIL (here or on the partner: biotinylated heavy chain) [P56 9-mer peptide (SPOP(F102C))] | 2.6
32 | CPMSRLRLA (here or on the partner: biotinylated heavy chain) [P46 9-mer peptide (TP53 (R213D) frameshift)] | 2.4
33 | LMAQRLLLR (here or on the partner: biotinylated heavy chain) [P97 9-mer peptide (FOXRED2-TXN2 fusion)] | 2.5
34 | YQFTFDLLI (here or on the partner: biotinylated heavy chain) [P48 9-mer peptide (AR.p.H875Y)] | 4.3
35 | CYLGRQKRF (here or on the partner: biotinylated heavy chain) [P61 9-mer peptide (FOXA1.p.R261G)] | 1.7
36 | YCMAAPMGL (here or on the partner: biotinylated heavy chain) [P76 9-mer peptide (AR-V3 splice variant)] | 0.1

Each binder was assayed against HLA-A*24:02 (human) (assay: UV peptide exchange + HLA class I ELISA). Settings: remark: other sources report otherwise.

Row | Binder | exchange rate vs Pos peptide [%]
37 | QLIAMDSAI (here or on the partner: biotinylated heavy chain) [P22 9-mer peptide (SLC45A3-ELK4 fusion)] | 0
38 | IVWWCPMSR (here or on the partner: biotinylated heavy chain) [P98 9-mer peptide (TP53 (R213D) frameshift)] | -0.1
39 | RAKCKFSIL (here or on the partner: biotinylated heavy chain) [P56 9-mer peptide (SPOP(F102C))] | 0.5
40 | CPMSRLRLA (here or on the partner: biotinylated heavy chain) [P46 9-mer peptide (TP53 (R213D) frameshift)] | -0.4
41 | LMAQRLLLR (here or on the partner: biotinylated heavy chain) [P97 9-mer peptide (FOXRED2-TXN2 fusion)] | 0.1
42 | YQFTFDLLI (here or on the partner: biotinylated heavy chain) [P48 9-mer peptide (AR.p.H875Y)] | 0.1
43 | CYLGRQKRF (here or on the partner: biotinylated heavy chain) [P61 9-mer peptide (FOXA1.p.R261G)] | 90.3
44 | YCMAAPMGL (here or on the partner: biotinylated heavy chain) [P76 9-mer peptide (AR-V3 splice variant)] | -0.5
